Test results: US20090233993A1, “COMPOSITIONS AND METHODS FOR INHIBITING GSK3 ACTIVITY AND USES THEREOF” (Burnham Institute for Medical Research, priority 2008, published 2009)
“Also recorded” adds a separate entry of the source.

Key:
[1] = tested on: FG01 transgenic mouse brain; assay: brain-specific FG01 transgenic mice, brain analysis; format: in vivo
Source text: Brain-specific FG01 transgenic mice were generated using a FG01 expression cassette. FG01 has an N-terminal Myc tag and is driven by the human Thy-1 promoter for neuron-specific expression. A SV40 polyA fragment is linked at the 3′ end for enhancing expression. Genotyping P5 primer was complementary to hThy1 sequence. Genotyping P3 primer was complementary to SV40/Poly A sequence. Reverse transcription primer RT-P5 was complementary to sequence on the 5′ side of the FG01 sequence. Hemizygous FG01 transgenic mice were crossed with homozygous triple transgenic (3×Tg) AD mice harboring mutations in human APP and tau genes on a presenilin 1 (PS1) mutant background (Oddo et al., 2003). Procedures involving animals and their care conformed to institutional guidelines (Animal Resources Department at Burnham Institute for Medical Research).
N-terminally Myc-tagged FG01 cDNA was cloned into pHZ04 construct between the human Thy-1 promoter and the SV40 polyA regions. Purified, linearized minigenes containing these sequences were microinjected into prenuclear embryos from superovulated C57B16 females. Two primers (Genotyping-P5: 5′-[…]-3′; SEQ ID NO:25), and Genotyping-P3: 5′-[…]-3′; SEQ ID NO:26) located within the human Thy-1 promoter and the SV40 regions, respectively, were used for genotyping. Brain tissues from confirmed transgenic mice and littermate controls were used for RNA extraction, reverse transcription and PCR with RT-P5 primer (5′-AGAATTTGGCTGTTTGG-3′; SEQ ID NO:27) located within the FG01 cDNA region paired with the Genotyping-P3 primer to verify Myc-FG01 expression. Alternatively, brain lysates were immunoprecipitated and analyzed by Western blot with the Myc antibody to verify Myc-FG01 expression. Procedures involving animals and their care conformed to institutional guidelines (Animal Resources Department at Burnham Institute for Medical Research).
To validate FG01 function in vivo, an FG01 transgenic mouse model specifically overexpressing Myc-tagged FG01 in the brain was generated. A transgenic expression cassette driven by the human Thy-1 promoter was microinjected into C57B16 mice and primers specifically amplifying exogenous Myc-FG01 were used to genotype transgenic mice. Genomic DNA extracted from mouse tail samples was genotyped by PCR using Genotyping-P5 and Genotyping-P3 primers located in the human Thy1 and SV40 polyA regions, respectively. […] Total RNA was extracted from the brain of an FG01 transgenic mouse (1) and of a littermate control (0), followed by RT-PCR with the RT-P5 primer located within the FG01-coding region and the Genotyping-P3 primer for detecting Myc-FG01 mRNA. Immunoprecipitation/Western blot confirmed that exogenous Myc-tagged FG01 protein was expressed in brain tissues of transgenic mice. Brain samples from FG01 transgenic (Tg) mice and littermate controls (Non-Tg) were analyzed for levels of phosphorylated/total CREB, phosphorylated/total GSK-3, and various tau forms by direct Western blot. Myc-FG01 was detected by immunoprecipitation-Western blot using the Myc antibody. Two mouse lines with similar exogenous FG01 expression levels were generated and the results obtained from the two lines (including their crossing with 3×Tg mice as described below) were similar. […] Brain lysates from FG01-Tg and Non-Tg mice were analyzed for GSK-3β activity. Results were normalized to those of Non-Tg samples.

tau = tau phosphorylation (Thr205, PHF-1) in N2aSwe cells cotransfected with human tau T40; format: cell-based
Method: Since GSK-3 can phosphorylate tau at multiple sites, it was determined whether FG01 can affect tau phosphorylation by GSK-3. The human longest tau splicing variant T40 was cotransfected with FG01 or expression vector (control) into N2aSwe cells, and the tau phosphorylation examined at Thr205 and PHF-1 tauepitope (Ser396 and Ser404), which are GSK-3 phosphorylation targets and major paired helical filament (PHF) tau sites found in NFTs. […] In addition, little change was found in CDK5 protein level and its in vitro activity upon FG01 overexpression.
The human tau T40 was co-transfected with either FG01 or the expression vector into N2aSwe cells. The phospho-tau at Thr205 and PHF-1 and total tau proteins in the transfected cells were detected by Western blots (left). The levels of phospho-tau at the examined sites were quantified by densitometry and normalized to the total levels (right).
GSK-3 is a major kinase that phosphorylates tau in AD (Flaherty et al., 2000). […] N2aSwe cells were cotransfected with the human tau splice variant T40 and with FG01 (or control vectors), and examined tau phosphorylation at the threonine 205 site (Thr205) and the PHF-1 tau epitope sites (serine 396 and serine 404), which are GSK-3 phosphorylation targets, and at the major paired helical filament (PHF) sites found in NFTs. […] Protein levels and activity of CDK5, another kinase mediating tau phosphorylation in AD (Flaherty et al., 2000), was analyzed following FG01 overexpression. […] N2a cells were transfected with FG01 or a control vector (Con). Equal cell lysate proteins were used for assaying in vitro CDK5 activity.

GSK-3α/β = assay: phospho-GSK-3α/β Western blot in rat PC12 cells; format: cell-based; settings: FG01 overexpression
Source text: Although the possibility that FG01 may modulate substrate specificity or accessibility to γ-secretase can not be excluded, it is equally possible that FG01 regulates other proteins/pathways functioning in APP processing and Aβ generation. […] Thus, the activities of GSK-3α/β were studied in the presence or absence of FG01 overexpression by examining levels of phospho-GSK-3α (Ser 21) and phospho-GSK-3β (Ser 9) (which represent inactivated forms of GSK-3) and by in vitro kinase assays.

PKA = PKA in vitro activity and CREB phosphorylation in FG01-transfected cells; format: cell-based, mouse
Method: After lysis, cell lysates were assayed for PKA activity, using a commercial kit and following the manufacturer's protocol (Upstate, catalog number 17-134). n=4.
Commercial kits were used to assay in vitro activities of GSK-3β (Sigma) and PKA (Upstate). For GSK-3α activity, a commercial GSK-3β activity assay kit was used but the procedure to immunoprecititate GSK-3β was replaced with immunoprecipitation of GSK-3α using an anti-GSK-3α antibody (Cell Signaling). cAMP levels were assayed using a commercial kit (Biovision).
Inhibition of GSK-3 activity via phosphorylation of serine 21 in GSK-3α and serine 9 in GSK-3β can be mediated by protein kinase A (PKA) (Fang et al., 2000), so whether FG01 regulates PKA activity was studied. […] Moreover, increased sAPPα secretion upon FG01 overexpression (FIG. 29A) is also likely due to PKA activation, because PKA can stimulate budding of APP-containing vesicles from the Trans-Golgi Network (TGN) and facilitates sAPPα generation (Xu et al., 1996).

[2] = human tau T40 cotransfected with FG01

B1: FG01: 141 amino acid transmembrane protein encoded by mouse retrogene fg01 (SEQ ID NO:2); expressed from transfected vector or transgene (protein)
chain: MQSQQRNIGYFNHLKADSRNITYSMTFSTKSSNQNFIIFLNEVQAAIIGHERCDLLPVLNELHPDALPDGRIWLFGLNPYFFQHNSLCMRGTPKRIGLQGCAQVGFLVLFVMPLLIPSVTAELPGSSETTTLAHLAGATGP
modifications: Myc and His6 tags; homo sapien
notes: expressed from transfected vector or transgene
levels of phosphorylated (inactive) GSK-3α/β in brain ([1]; FG01 transgenic vs littermate non-Tg mice): increased
CREB phosphorylation in brain ([1]; FG01 transgenic vs non-Tg mice): Increased
phosphorylation of endogenous mouse brain tau ([1]; FG01 transgenic vs non-Tg mice): decreased
GSK-3β activity in brain ([1]; FG01 transgenic vs non-Tg mice, brain lysates): reduced
behavioral phenotypes ([1]; observation of FG01 transgenic mice): no obvious aberrant behavioral phenotypes
total tau levels (tau; [2]): without affecting
unphosphorylated tau levels (tau; [2]): increased
tau phosphorylation at GSK-3 target sites (tau; human tau T40 cotransfected with FG01 in N2aSwe cells): significantly decreased
decrease of tau phosphorylation at Thr205 and PHF-1 epitope (Ser396, Ser404) (tau; human tau T40 cotransfected with FG01 in N2aSwe cells, densitometry): ~60%
phospho-GSK-3α (Ser21) and phospho-GSK-3β (Ser9) levels (GSK-3α/β): more highly phosphorylated
PKA activity (PKA; FG01-transfected N2a/Swe cells vs control): significantly increase; also recorded: significantly more PKA activity
phosphorylation of CREB (PKA substrate) (PKA; FG01 overexpression): increased
